In PMC2887905:

Experiments:
[1] = biological target: Recombinant HIV-1 gp120 (LAV, CXCR4 monotropic, identical to NL4-3 gp120, glycosylated) (HIV-1 (LAV; identical to NL4-3 gp120)) (UniProt P03377)
[2] = biological target: gp41 (ARP671, spanning the entire extracellular domain of HIV-1 gp41MN) (HIV-1 (MN)) (UniProt P05877); test: SPR; gp41 immobilised on a biosensor; data not shown
Chain of UniProt P05877 (P05877 32-685): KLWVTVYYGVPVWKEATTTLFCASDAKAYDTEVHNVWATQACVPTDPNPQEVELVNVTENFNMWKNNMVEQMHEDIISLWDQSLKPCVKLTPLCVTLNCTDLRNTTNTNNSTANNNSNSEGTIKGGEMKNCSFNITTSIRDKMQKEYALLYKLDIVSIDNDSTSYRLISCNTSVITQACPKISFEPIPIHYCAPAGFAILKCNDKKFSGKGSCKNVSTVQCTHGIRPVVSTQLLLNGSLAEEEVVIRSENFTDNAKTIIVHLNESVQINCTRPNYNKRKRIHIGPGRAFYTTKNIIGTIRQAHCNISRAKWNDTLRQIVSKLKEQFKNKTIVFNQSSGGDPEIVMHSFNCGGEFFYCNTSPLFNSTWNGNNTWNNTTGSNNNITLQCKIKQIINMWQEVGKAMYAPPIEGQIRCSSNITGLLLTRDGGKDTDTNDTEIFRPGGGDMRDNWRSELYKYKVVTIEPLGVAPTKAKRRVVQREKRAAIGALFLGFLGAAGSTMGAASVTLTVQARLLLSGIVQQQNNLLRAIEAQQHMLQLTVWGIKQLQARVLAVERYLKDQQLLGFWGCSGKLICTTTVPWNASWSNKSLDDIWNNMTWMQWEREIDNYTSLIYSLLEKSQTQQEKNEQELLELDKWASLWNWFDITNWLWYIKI

| Substance | neutralisation of HIV-1 NL4-3 infection, p24 antigen ELISA on day 5, dose-dependent, value at 20 μg/ml [1] [%] | response units [2] [RU] | neutralisation of HIV-1 NL4-3 infection, p24 antigen ELISA on day 5, value at 50 μg/ml [1] [%] |
| --- | --- | --- | --- |
| HOCl-modified bovine serum albumin (protein:HOCl molar ratio 1:1000) (from UniProt P02769 25-607) | > 90 | < 5 | – |
| HOCl-modified human serum albumin (protein:HOCl molar ratio 1:1000) (from UniProt P02768 25-609) | > 95 | < 5 | – |
| HOCl-modified mouse serum albumin (protein:HOCl molar ratio 1:1000) (from UniProt P07724 25-608) | – | < 5 | > 90 |
